Measured values from publication PMC8294582.
Residue numbers refer to the chain shown, from its start. Names may count otherwise. Blank lines part the entries; values can stand above or below the binder they belong to.

Target: RNA polymerase II, P24928
Test: coimmunoprecipitation (anti-FLAG beads, Western blot quantification)
Details: chain shown with the change; tSETD2-FLAG on anti-Flag beads incubated with HEK293 cell lysate; parent: est. 82; read off a plot

- response (% of input bound): 17
B1: truncated form of human WT SETD2, FLAG-tagged (tSETD2-FLAG, aa1418–2564), Q9BYW2 H2514A (protein)
chain: DGELQDRKKVRVEVEQGETSVPPGSALVGPSCVMDDFRDPQRWKECAKQGKMPCYFDLIEENVYLTERKKNKSHRDIKRMQCECTPLSKDERAQGEIACGEDCLNRLLMIECSSRCPNGDYCSNRRFQRKQHADVEVILTEKKGWGLRAAKDLPSNTFVLEYCGEVLDHKEFKARVKEYARNKNIHYYFMALKNDEIIDATQKGNCSRFMNHSCEPNCETQKWTVNGQLRVGFFTTKLVPSGSELTFDYQFQRYGKEAQKCFCGSANCRGYLGGENRVSIRAAGGKMKKERSRKKDSVDGELEALMENGEGLSDKNQVLSLSRLMVRIETLEQKLTCLELIQNTHSQSCLKSFLERHGLSLLWIWMAELGDGRESNQKLQEEIIKTLEHLPIPTKNMLEESKVLPIIQRWSQTKTAVPPLSEGDGYSSENTSRAHTPLNTPDPSTKLSTEADTDTPKKLMFRRLKIISENSMDSAISDATSELEGKDGKEDLDQLENVPVEEEEELQSQQLLPQQLPECKVDSETNIEASKLPTSEPEADAEIEPKESNGTKLEEPINEETPSQDEEEGVSDVESERSQEQPDKTVDISDLATKLLDSWKDLKEVYRIPKKSQTEKENTTTERGRDAVGFRDQTPAPKTPNRSRERDPDKQTQNKEKRKRRSSLSPPSSAYERGTKRPDDRYDTPTSKKKVRIKDRNKLSTEERRKLFEQEVAQREAQKQQQQMQNLGMTSPLPYDSLGYNAPHHPFAGYPPGYPMQAYVDPSNPNAGKVLLPTPSMDPVCSPAPYDHAQPLVGHSTEPLSAPPPVPVVPHVAAPVEVSSSQYVAQSDGVVHQDSSVAVLPVPAPGPVQGQNYSVWDSNQQSVSVQQQYSPAQSQATIYYQGQTCPTVYGVTSPYSQTTPPIVQSYAQPSLQYIQGQQIFTAHPQGVVVQPAAAVTTIVAPGQPQPLQPSEMVVTNNLLDLPPPSPPKPKTIVLPPNWKTARDPEGKIYYYHVITRQTQWDPPTWESPGDDASLEHEAEMDLGTPTYDENPMKASKKPKTAEADTSSELAKKSKEVFRKEMSQFIVQCLNPYRKPDCKVGRITTTEDFKHLARKLTAGVMNKELKYCKNPEDLECNENVKHKTKEYIKKYMQKFGAVYKPKEDTELE

- response (% of input bound): 12
B2: truncated form of human WT SETD2, FLAG-tagged (tSETD2-FLAG, aa1418–2564), Q9BYW2 F2505A (protein)
chain: B1 chain with F1088A, A1097H

- response (% of input bound): 76
B3: truncated form of human WT SETD2, FLAG-tagged (tSETD2-FLAG, aa1418–2564), Q9BYW2 V2483A (protein)
chain: B1 chain with V1066A, A1097H

- response (% of input bound): 84
B4: truncated form of human WT SETD2, FLAG-tagged (tSETD2-FLAG, aa1418–2564), Q9BYW2 R2510H (protein)
chain: B1 chain with R1093H, A1097H
